PMC11659886, “Bioinformatics-Facilitated Identification of Novel Bacterial Sulfoglycosidases That Hydrolyze 6-Sulfo-N-acetylglucosamine” (ACS Bio & Med Chem Au, 2024)

Columns and labels:
[1] = tested on: CC(=O)N[C@H]1[C@H](Oc2ccc3c(C)cc(=O)oc3c2)O[C@H](COS(=O)(=O)O)[C@@H](O)[C@@H]1O; assay: purified protein; conditions: pH 6.0, 25 °C, 25 mM Bis-tris propane, 25 mM citrate, 300 mM NaCl
[2] = tested on: CC(=O)N[C@H]1[C@H](Oc2ccc3c(C)cc(=O)oc3c2)O[C@H](CO)[C@@H](O)[C@@H]1O; assay: fluorometric release of 4-methylumbelliferone, Michaelis-Menten fit; format: biochemical, Prevotella sp. CAG:5226; conditions: pH 6.0, 25 °C, 25 mM Bis-tris propane, 25 mM citrate, 300 mM NaCl
Description: (§1) fluorometric release of 4-methylumbelliferone, Michaelis-Menten fit on WG enzyme

[3] = tested on: CC(=O)N[C@H]1[C@H](Oc2ccc3c(C)cc(=O)oc3c2)O[C@H](COS(=O)(=O)O)[C@@H](O)[C@@H]1O; assay: as above; format: biochemical, Prevotella sp. CAG:5226; conditions: pH 6.0, 25 °C, 25 mM Bis-tris propane, 25 mM citrate, 300 mM NaCl
Description: as §1

[4] = tested on: T1, CC(=O)N[C@H]1[C@H](Oc2ccc3c(C)cc(=O)oc3c2)O[C@H](COS(=O)(=O)O)[C@@H](O)[C@@H]1O; assay: as above; format: biochemical, Bacteroides thetaiotaomicron; conditions: pH 5.5, 25 °C, 25 mM Bis-tris propane, 25 mM citrate, 300 mM NaCl
T1 construct: residues 22-546, His6-tagged (pET23-Bt4394(22-546)-6His), expressed in E. coli BL21(DE3)
Description: (§2) fluorometric release of 4-methylumbelliferone, Michaelis-Menten fit on Bt4394

[5] = tested on: CC(=O)N[C@H]1[C@H](Oc2ccc3c(C)cc(=O)oc3c2)O[C@H](CO)[C@@H](O)[C@@H]1O; assay: purified protein; conditions: pH 6.0, 25 °C, 25 mM Bis-tris propane, 25 mM citrate, 300 mM NaCl
Description: fluorometric release of 4-methylumbelliferone, Michaelis-Menten fit on YG enzyme

[6] = substrate: CC(=O)N[C@H]1[C@H](Oc2ccc3c(C)cc(=O)oc3c2)O[C@H](COS(=O)(=O)O)[C@@H](O)[C@@H]1O; assay: fluorometric release of 4-methylumbelliferone, Michaelis-Menten fit; format: biochemical, Bacteroides thetaiotaomicron; conditions: pH 5.5, 25 °C, 25 mM Bis-tris propane, 25 mM citrate, 300 mM NaCl
Description: as §2

[7] = substrate: CC(=O)N[C@H]1[C@H](Oc2ccc3c(C)cc(=O)oc3c2)O[C@H](CO)[C@@H](O)[C@@H]1O; assay: as above; format: biochemical, Bacteroides thetaiotaomicron; conditions: pH 5.5, 25 °C, 25 mM Bis-tris propane, 25 mM citrate, 300 mM NaCl
Description: as §2

WG enzyme (Prevotella sp. CAG:5226; N423D)
Km [1]: 56 ± 6 µM | kcat [1]: 69 ± 4 s⁻¹ | kcat/Km [1]: 1.2e+06 ± 700000 M⁻¹ s⁻¹

WG enzyme (Prevotella sp. CAG:5226)
Km [2]: 2706 ± 344 µM | kcat [2]: 11.6 ± 0.5 s⁻¹ | kcat/Km [2]: 4000 ± 2000 M⁻¹ s⁻¹ | Km [3]: 5.1 ± 0.3 µM | kcat [3]: 39.9 ± 0.6 s⁻¹ | kcat/Km [3]: 8e+06 ± 2e+06 M⁻¹ s⁻¹

WG enzyme (Prevotella sp. CAG:5226; W417A)
Km [1]: 17 ± 2 µM | kcat [1]: 45 ± 1 s⁻¹ | kcat/Km [1]: 2.6e+06 ± 300000 M⁻¹ s⁻¹

Bt4394 (Bacteroides thetaiotaomicron VPI-5482; I432G/Q431Y)
Km [4]: 546 ± 37 µM | kcat [4]: 31.6 ± 0.7 s⁻¹ | kcat/Km [4]: 60000 ± 20000 M⁻¹ s⁻¹

YG enzyme (Alloprevotella sp. oral taxon 473 str. F0040)
Km [5]: 2209 ± 355 µM | kcat [5]: 11.7 ± 0.7 s⁻¹ | kcat/Km [5]: 5000 ± 2000 M⁻¹ s⁻¹ | Km [1]: 12 ± 1 µM | kcat [1]: 76 ± 2 s⁻¹ | kcat/Km [1]: 6e+06 ± 2e+06 M⁻¹ s⁻¹

YG enzyme (Alloprevotella sp. oral taxon 473 str. F0040; N445D)
Km [1]: 130 ± 14 µM | kcat [1]: 98 ± 3 s⁻¹ | kcat/Km [1]: 800000 ± 200000 M⁻¹ s⁻¹

YG enzyme (Alloprevotella sp. oral taxon 473 str. F0040; R446A)
Km [1]: 90 ± 9 µM | kcat [1]: 97 ± 3 s⁻¹ | kcat/Km [1]: 1.1e+06 ± 300000 M⁻¹ s⁻¹

WG enzyme (Prevotella sp. CAG:5226; R424A)
Km [1]: 47 ± 6 µM | kcat [1]: 62 ± 2 s⁻¹ | kcat/Km [1]: 1.3e+06 ± 300000 M⁻¹ s⁻¹

Bt4394 (Bacteroides thetaiotaomicron VPI-5482; I432G/Q431W)
Km [4]: 194 ± 16 µM | kcat [4]: 12 ± 0.3 s⁻¹ | kcat/Km [4]: 60000 ± 20000 M⁻¹ s⁻¹

B1: Bt4394 (Bacteroides thetaiotaomicron VPI-5482) (protein)
chain: QEIALTPQPAHLTVKDGRFEFGNQLKAKVTPYQGDSIRMVFESFKKELQEATGIKVSSTQKEAKARIILDLNPQLPAEAYKLNVSKKQVRIEASRPAGFYYALQTLKQLMPRNVMAGVATSDHSQWSLPSVEIEDAPRFEWRGFMLDEGRHFFGKDEIKRVIDMMAIYKMNRFHWHLTEDQGWRIEIKKYPKLTETGAWRNSKVLAYGDVKPDGERYGGFYTQKDIKEIVAYAKKKFIEIIPEIDIPGHSQAAVAAYPEFLACDPRDKHEVWLQQGISTDVINVANPKAMQFAKEVIDELTELFPFNYIHLGGDECPTRKWQKNDECKKLLSEIGSSNFRDLQIYFYKQLKDYIATKPADQQRQLIFWNEVLHGNTSILGNDITIMAWIGANAAAKQAAKQGMNTILSPQIPYYINRKQSKLPTEPMSQGHGTETVEAVYNYQPLKDVDAALQPYYKGVQANFWTEWVTEPSVLEYLMLPRLAAVAEAGWTPQEKRNYEDFKERIRKDAELYDLKGWNYGKHIMK
notes: residues 22-546, His6-tagged (pET23-Bt4394(22-546)-6His), expressed in E. coli BL21(DE3)
Km [6]: 39 ± 4 µM | kcat [6]: 25.8 ± 0.7 s⁻¹ | kcat/Km [6]: 700000 ± 200000 M⁻¹ s⁻¹ | Km [7]: 2183 ± 189 µM | kcat [7]: 2.9 ± 0.1 s⁻¹ | kcat/Km [7]: 1300 ± 500 M⁻¹ s⁻¹
